Target: the molecule itself
Test: native gel or EMSA; recombinant FTN variants (2 µg) resolved on a 4–16% gradient NativePAGE Bis-Tris gel, Coomassie Blue stained; NativeMark standard for the size of complexes; self-assembly into high molecular weight complexes

B1: C. elegans ferritin FTN-2, recombinant, untagged, wild type (natural protein, UniProt Q9TYS3 1-170, looked up)
chain: MSLARQNYHSEVEAAVNKQINIELYASYVYLSMSFYFDRDDVALPNIAKFFKEQSDEEREHATELMRVQNLRGGRVVLQDIQKPENDEWGTALKAFEAALALEKFNNESLLKLHSTAGNHNDAHLTDFIEEKYLDEQVKSINEFARMVANLKRVGPGVGEYVFDKEHFSD
notes: FTN-2, C. elegans ferritin; ORF amplified from C. elegans cDNA and cloned between NcoI and NotI of pET28a; expressed without a tag; also called FTN-2 wt; source: E. coli BL21-CodonPlus (DE3)-RIPL, purified (heat step, acid precipitation, cation exchange)
  binding result: binds

B2: C. elegans ferritin FTN-2 E58K/H61G (FeOx-mut), recombinant, untagged (natural protein, UniProt Q9TYS3 1-170, looked up)
chain: MSLARQNYHSEVEAAVNKQINIELYASYVYLSMSFYFDRDDVALPNIAKFFKEQSDEKREGATELMRVQNLRGGRVVLQDIQKPENDEWGTALKAFEAALALEKFNNESLLKLHSTAGNHNDAHLTDFIEEKYLDEQVKSINEFARMVANLKRVGPGVGEYVFDKEHFSD
notes: FTN-2, C. elegans ferritin; ORF in pET28a with the E58K/H61G double mutation made by site-directed mutagenesis; expressed without a tag; also called FTN-2 FeOx-mut; E58K/H61G-mutated FTN-2; source: E. coli BL21-CodonPlus (DE3)-RIPL, purified (heat step, acid precipitation, cation exchange)
  binding result: binds

B3: C. elegans ferritin FTN-1, recombinant, untagged, wild type (natural protein, UniProt O16453 1-170, looked up)
chain: MSLARQNYHDEVEAAVNKQINVELYASYVYLSMSAHFDRDDIALRNIAKFFKEQSDEERGHATELMRIQAVRGGRVAMQNIQKPEKDEWGTVLEAFEAALALERANNASLLKLHGIAEQRNDAHLTNYIQEKYLEEQVHSINEFARYIANIKRAGPGLGEYLFDKEEFSD
notes: FTN-1, C. elegans ferritin; ORF amplified from C. elegans cDNA and cloned between NcoI and NotI of pET28a; expressed without a tag; also called FTN-1 wt; source: E. coli BL21-CodonPlus (DE3)-RIPL, purified (heat step, acid precipitation, cation exchange)
  binding result: binds

B4: C. elegans ferritin FTN-1 E58K/H61G (FeOx-mut), recombinant, untagged (natural protein, UniProt O16453 1-170, looked up)
chain: MSLARQNYHDEVEAAVNKQINVELYASYVYLSMSAHFDRDDIALRNIAKFFKEQSDEKRGGATELMRIQAVRGGRVAMQNIQKPEKDEWGTVLEAFEAALALERANNASLLKLHGIAEQRNDAHLTNYIQEKYLEEQVHSINEFARYIANIKRAGPGLGEYLFDKEEFSD
notes: FTN-1, C. elegans ferritin; ORF in pET28a with the E58K/H61G double mutation made by site-directed mutagenesis; expressed without a tag; also called FTN-1 FeOx-mut; E58K/H61G-mutated FTN-1; source: E. coli BL21-CodonPlus (DE3)-RIPL, purified (heat step, acid precipitation, cation exchange)
  binding result: binds

From publication PMC9391379, “Ferritin-mediated iron detoxification promotes hypothermia survival in Caenorhabditis elegans and murine neurons” (Nature Communications, 2022)
